Results as given in US20160102139A1 (NATIONAL UNIVERSITY CORPORATION CHIBA UNIVERSITY, published 2016).
Residue numbers refer to the chain shown, from its start.

T1: mouse Myl9 (myosin regulatory light chain polypeptide 9) (mouse, UniProt Q9CQ19 2-172)
T1 construct: Native protein in mouse bone marrow extract (BM lysate) or mouse tissues; also called Myl9/12
T1 sequence: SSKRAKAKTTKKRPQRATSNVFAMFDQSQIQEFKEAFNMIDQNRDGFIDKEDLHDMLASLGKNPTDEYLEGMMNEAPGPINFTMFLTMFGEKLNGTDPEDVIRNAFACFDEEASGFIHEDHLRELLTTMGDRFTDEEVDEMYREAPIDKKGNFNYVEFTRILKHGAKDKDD

T2: mouse Myl12b (myosin regulatory light chain polypeptide 12b) (mouse, UniProt Q3THE2 1-172, limits assumed)
T2 construct: Native protein in mouse bone marrow extract (BM lysate) or mouse tissues; also called Myl9/12
T2 sequence: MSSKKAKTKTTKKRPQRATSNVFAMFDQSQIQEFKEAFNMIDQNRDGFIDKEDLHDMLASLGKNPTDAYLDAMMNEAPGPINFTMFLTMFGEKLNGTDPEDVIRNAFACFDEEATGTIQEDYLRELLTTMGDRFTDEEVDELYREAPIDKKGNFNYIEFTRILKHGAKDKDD

B1: 3xFlag mCD69EC treated with the deglycosylation enzyme PNGase F (receptor, mouse, UniProt P37217 62-199, looked up)
chain: NVGKYNCPGLYEKLESSDHHVATCKNEWISYKRTCYFFSTTTKSWALAQRSCSEDAATLAVIDSEKDMTFLKRYSGELEHWIGLKNEANQTWKWANGKEFNSWFNLTGSGRCVSVNHKNVTAVDCEANFHWVCSKPSR
modifications: N-glycans removed by PNGase F (500 U per 1 ug protein)
notes: extracellular domain; Same polypeptide as m2, after deglycosylation with N-glycosidase PNGase F; also called CD69EC previously treated with PNGase F; deglycosylated 3xFLAG mCD69EC; not shown: N-terminal 3xFlag tag from vector p3xFLAG CMV-9
B2: mouse CD69 extracellular domain protein having 3xFlag-tag added thereto (3xFlag mCD69EC) (receptor, UniProt P37217 62-199, looked up)
chain: B1 chain
notes: extracellular domain; also called mCD69EC protein; not shown: N-terminal 3xFlag tag from vector p3xFLAG CMV-9
B3: mouse Myl12a (myosin regulatory light chain polypeptide 12a) (ligand)
chain: T2 sequence with K5R, L61M, A68E, T115I
notes: Native protein in mouse bone marrow extract (BM lysate) or mouse tissues; also called Myl9/12

How the values were obtained:
Test in all cases: immunoprecipitation with anti-Flag M2 antibody from bone marrow extract, immunoblot with anti-Myl9/12 antibody
[1] = biological target: T1, mouse Myl9 (myosin regulatory light …)
Protocol: (§1) Then, whether the binding of Myl9, Myl12a, and Myl12b with CD69 actually occurred was investigated. Firstly, mCD69EC sequence was inserted to p3xFLAG CMV-9 (Sigma-Aldrich Co. LLC.) having Flag tag incorporated at the N-terminal to produce an expression vector of mCD69EC sequence having Flag-Tag added at the N-terminal. The expression vector was transformed to 293 T cells to overexpress 3xFlag mCD69EC, and then a cell extract was prepared. As a control, a cell extract was prepared from 293 T cells overexpressing 3xFlag peptide. 3xFlag mCD69EC protein or 3xFlag peptide was purified from the cell extract using anti-[…] (SEQ ID NO: 21) tag antibody beads (Wako Pure Chemical Industries, Ltd.). In this case, […] is a peptide represented by a single letter code for an amino acid. Those purified proteins were each subjected to a reaction with a bone marrow extract (BM lysate) in the same manner as described above and the resultant products were subjected to immunoprecipitation using anti-Flag M2 antibody (Sigma-Aldrich Co. LLC.) and protein-G (GE Healthcare). After the immunoprecipitation was performed, the precipitates were separated by SDS-PAGE and transferred to a polyvinylidene difluoride (PVDF) membrane (Bio-Rad Laboratories, Inc.). Subsequently, immunoblotting was performed using an antibody which recognized Myl9, Myl12a, and Myl12b (hereinafter referred to as anti-Myl9/12 antibody). That is, each protein was detected by ChemiDocXRS+ (Bio-Rad Laboratories, Inc.) with ECL detection reagents (GE Healthcare) using rabbit anti-Myl9 antibody (Abcam plc.) as a primary antibody and horseradish peroxidase (HRP)-labeled anti-rabbit IgG antibody (Cell Signaling Technology, Inc.) as a secondary antibody. Deglycosylation treatment of the mCD69EC protein was performed by adding 500 U of N-glycosidase PNGase F (New England Biolabs Ltd.) to 1 μg of 3xFLAG mCD69EC.

[2] = biological target: T2, mouse Myl12b (myosin regulatory light …)
Protocol: as §1

[3] = biological target: B2
Protocol: as §1

[4] = biological target: B1
Protocol: as §1

Row | Binder | binding result [1] | binding result [2] | binding result [3] | binding result [4]
1 | B1 | binds | binds |  | 
2 | B2 | binds | binds |  | 
3 | B3 |  |  | binds | binds
